Reference: patent US20150266963A1

How the values were obtained:
[1] = target: T1, recombinant human CD70 (Flag-TNC-CD70) (human) (UniProt P32970); assay: blocking ELISA; human Flag-TNC-CD70; competitor CD27-Fc
T1 sequence (looked up): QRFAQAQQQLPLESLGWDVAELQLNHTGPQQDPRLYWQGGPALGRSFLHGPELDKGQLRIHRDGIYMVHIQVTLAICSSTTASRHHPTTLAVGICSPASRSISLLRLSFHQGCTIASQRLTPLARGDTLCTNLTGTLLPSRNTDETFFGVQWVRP

[2] = target: T2, human CD70 expressed on the surface of cells (human) (UniProt P32970); assay: flow cytometry on SU-DHL-6 cells, 1 h at 4 °C, anti-hIgG1-Fc-FITC or anti-hIgG-Fc-PE [panel SU-DHL-6]
T2 sequence (looked up): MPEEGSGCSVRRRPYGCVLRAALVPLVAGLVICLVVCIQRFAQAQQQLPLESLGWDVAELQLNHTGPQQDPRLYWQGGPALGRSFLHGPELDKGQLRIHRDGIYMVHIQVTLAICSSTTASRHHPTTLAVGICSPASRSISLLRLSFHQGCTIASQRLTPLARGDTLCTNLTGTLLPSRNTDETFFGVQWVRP

[3] = target: T1, recombinant human CD70 (Flag-TNC-CD70) (human); assay: blocking ELISA; Flag-TNC-CD70 captured by anti-FLAG M2; competitor CD27-Fc 6.5 nM
[4] = target: T2, human CD70 expressed on the surface of cells (human); assay: flow cytometry on U266 cells, goat anti human IgG1 FITC [panel U266]
[5] = target: T2, human CD70 expressed on the surface of cells (human); assay: flow cytometry on U266 cells, 1 h at 4 °C, anti-hIgG1-Fc-FITC or anti-hIgG-Fc-PE [panel U266]

IC50 [1]: 0.044 µg/mL
EC50 (read off the curve) [2]: 2 µg/mL
IC50 [3]: 5.5 µg/mL
EC50 (read off the curve) [4]: 0.1 µg/mL
EC50 (read off the curve) [5]: 0.1 µg/mL
Substance: MDX1411 (antibody)
